Measurements from the Immune Epitope Database (IEDB).
Each block holds one sequence with its values, some of them ahead of it.

What was measured:
HLA-B*27:05 = assay: IEDB peptide-MHC binding, cellular MHC/competitive/radioactivity; ≥ and ≤ were set here for values at or beyond the usual limits of such assays; conditions: source organism: Hepacivirus hominis
HLA-A*01:01 [1] = assay: IEDB peptide-MHC binding, purified MHC/competitive/fluorescence; filed as Kd, often an IC50 or EC50 that approximates it; ≥ and ≤ were set here for values at or beyond the usual limits of such assays; conditions: source organism: Rattus norvegicus
HLA-A*29:02 = assay: as above; conditions: source organism: Rattus norvegicus
HLA-A*80:01 = assay: IEDB peptide-MHC binding, purified MHC/direct/fluorescence; filed as Kd, often an IC50 or EC50 that approximates it; ≥ and ≤ were set here for values at or beyond the usual limits of such assays
HLA-A*02:01 = assay: IEDB peptide-MHC binding, purified MHC/competitive/radioactivity; ≥ and ≤ were set here for values at or beyond the usual limits of such assays; conditions: source organism: Trypanosoma cruzi
HLA-A*02:06 = assay: IEDB peptide-MHC binding, purified MHC/competitive/radioactivity; filed as Kd, often an IC50 or EC50 that approximates it; ≥ and ≤ were set here for values at or beyond the usual limits of such assays; conditions: source organism: Trypanosoma cruzi
HLA-A*68:02 = assay: as above; conditions: source organism: Trypanosoma cruzi
HLA-A*02:02 = assay: as above; conditions: source organism: Trypanosoma cruzi
HLA-A*02:03 = assay: as above; conditions: source organism: Trypanosoma cruzi
HLA-C*04:01 [2] = assay: IEDB peptide-MHC binding, purified MHC/competitive/fluorescence; filed as Kd, often an IC50 or EC50 that approximates it; ≥ and ≤ were set here for values at or beyond the usual limits of such assays; conditions: source organism: Yersinia pestis Nepal516
HLA-A*24:02 = assay: as above
HLA-C*06:02 = assay: as above; conditions: source organism: Yersinia pestis Nepal516
HLA-B*15:42 = assay: as above
HLA-A*32:15 = assay: as above; conditions: source organism: Yersinia pestis Nepal516
HLA-A*68:23 = assay: as above; conditions: source organism: Yersinia pestis Nepal516
HLA-B*45:06 = assay: as above
HLA-A*03:19 = assay: as above; conditions: source organism: Yersinia pestis Nepal516
HLA-A*32:07 = assay: as above; conditions: source organism: Yersinia pestis Nepal516
HLA-C*14:02 = assay: as above; conditions: source organism: Yersinia pestis Nepal516
HLA-C*15:02 = assay: IEDB peptide-MHC binding, purified MHC/direct/fluorescence; filed as Kd, often an IC50 or EC50 that approximates it; ≥ and ≤ were set here for values at or beyond the usual limits of such assays; conditions: source organism: Yersinia pestis Nepal516
HLA-B*35:01 = assay: IEDB peptide-MHC binding, purified MHC/competitive/fluorescence; filed as Kd, often an IC50 or EC50 that approximates it; ≥ and ≤ were set here for values at or beyond the usual limits of such assays; conditions: source organism: Yersinia pestis Nepal516
HLA-B*15:01 = assay: as above; conditions: source organism: Yersinia pestis Nepal516
HLA-B*07:02 = assay: as above; conditions: source organism: Yersinia pestis Nepal516
HLA-B*46:01 = assay: as above; conditions: source organism: Yersinia pestis Nepal516
HLA-B*15:02 = assay: as above; conditions: source organism: Yersinia pestis Nepal516
HLA-C*07:02 = assay: IEDB peptide-MHC binding, purified MHC/direct/fluorescence; filed as Kd, often an IC50 or EC50 that approximates it; ≥ and ≤ were set here for values at or beyond the usual limits of such assays
HLA-B*08:01 = assay: IEDB peptide-MHC binding, purified MHC/competitive/fluorescence; filed as Kd, often an IC50 or EC50 that approximates it; ≥ and ≤ were set here for values at or beyond the usual limits of such assays; conditions: source organism: Yersinia pestis Nepal516
HLA-B*51:01 = assay: as above; conditions: source organism: Yersinia pestis Nepal516
HLA-B*48:01 = assay: as above; conditions: source organism: Escherichia coli B171
HLA-B*27:20 = assay: as above
HLA-B*83:01 = assay: as above
HLA-B*73:01 = assay: as above; conditions: source organism: Salmonella enterica subsp. enterica serovar Typhimurium str. LT2
HLA-A*01:01 [3] = assay: IEDB peptide-MHC binding, purified MHC/direct/fluorescence; filed as Kd, often an IC50 or EC50 that approximates it; ≥ and ≤ were set here for values at or beyond the usual limits of such assays; conditions: source organism: Mammarenavirus lassaense
HLA-B*39:01 = assay: IEDB peptide-MHC binding, purified MHC/competitive/fluorescence; filed as Kd, often an IC50 or EC50 that approximates it; ≥ and ≤ were set here for values at or beyond the usual limits of such assays; conditions: source organism: Yersinia pestis Nepal516
HLA-C*03:03 = assay: IEDB peptide-MHC binding, purified MHC/direct/fluorescence; filed as Kd, often an IC50 or EC50 that approximates it; ≥ and ≤ were set here for values at or beyond the usual limits of such assays; conditions: source organism: Yersinia pestis Nepal516
HLA-C*12:03 = assay: as above; conditions: source organism: Yersinia pestis Nepal516
HLA-C*04:01 [4] = assay: as above; conditions: source organism: Entamoeba dispar SAW760
[5] = source organism: Yersinia pestis Nepal516
[6] = source organism: Human herpesvirus 4 strain B95-8
[7] = source organism: Entamoeba dispar SAW760

Sequence: ARMILMTHF
IC50 (HLA-B*27:05): 1.1 nM

Sequence: FFGETSHNY
Kd (HLA-A*01:01 [1]): ≥ 20000 nM
Kd (HLA-A*29:02): ≤ 0.1 nM
Kd (HLA-A*80:01; source organism: Mus musculus): ≥ 20000 nM

Sequence: FLSHNFTLV
IC50 (HLA-A*02:01): 0.61 nM
Kd (HLA-A*02:06): 0.445 nM
Kd (HLA-A*68:02): 27.1 nM
Kd (HLA-A*02:02): 0.047 nM
Kd (HLA-A*02:03): 0.0232 nM

Sequence: FYFNWNTPI
Kd (HLA-C*04:01 [2]): 300 nM
Kd (HLA-A*24:02; [5]): ≤ 0.1 nM
Kd (HLA-C*06:02): 33.9 nM
Kd (HLA-B*15:42; [5]): ≥ 5000 nM
Kd (HLA-A*32:15): 7.2 nM
Kd (HLA-A*68:23): 23.5 nM
Kd (HLA-B*45:06; [5]): ≥ 5000 nM
Kd (HLA-A*03:19): 1420 nM
Kd (HLA-A*32:07): 0.2 nM
Kd (HLA-C*14:02): ≤ 0.1 nM
Kd (HLA-C*15:02): 1060 nM

Sequence: HLIQNPNPF
Kd (HLA-B*35:01): 27.3 nM
Kd (HLA-B*15:01): 30.8 nM
Kd (HLA-B*07:02): 6500 nM
Kd (HLA-B*46:01): 8050 nM
Kd (HLA-B*15:02): 17.3 nM
Kd (HLA-C*07:02; [5]): 626 nM

Sequence: LPFLKSLAI
Kd (HLA-B*08:01): 105 nM
Kd (HLA-B*35:01): 46.1 nM
Kd (HLA-B*15:01): ≥ 20000 nM
Kd (HLA-B*51:01): 841 nM
Kd (HLA-B*07:02): 12.6 nM

Kd (HLA-B*48:01): 192 nM
Sequence: RQNLSSSEL

Sequence: RRAALSGHL
Kd (HLA-B*15:42; [6]): ≥ 5000 nM
Kd (HLA-B*27:20; [6]): 0.2 nM
Kd (HLA-B*45:06; [6]): ≥ 5000 nM
Kd (HLA-B*83:01; [6]): ≥ 5000 nM

Sequence: WRLYSPPPV
Kd (HLA-B*73:01): 118 nM

Sequence: YENAVWDQY
Kd (HLA-A*80:01; source organism: Mammarenavirus lassaense): 463 nM
Kd (HLA-A*01:01 [3]): 537 nM

Sequence: YRYCHQLAL
Kd (HLA-C*06:02): 1.8 nM
Kd (HLA-B*15:42; [5]): ≥ 5000 nM
Kd (HLA-B*27:20; [5]): 0.2 nM
Kd (HLA-B*45:06; [5]): ≥ 5000 nM
Kd (HLA-B*39:01): 1.2 nM
Kd (HLA-B*83:01; [5]): ≥ 5000 nM
Kd (HLA-C*03:03): 164 nM
Kd (HLA-C*07:02; [5]): 39 nM
Kd (HLA-C*12:03): 206 nM
Kd (HLA-C*15:02): ≥ 20000 nM

Sequence: YYSNKVFPI
Kd (HLA-A*24:02; [7]): ≤ 0.1 nM
Kd (HLA-C*04:01 [4]): ≥ 20000 nM
Kd (HLA-C*07:02; [7]): 245 nM
